Source: US20140221622A1

Target: biotin-labeled cMet (UniProt P08581)
Test: indirect ELISA: antibody captured on anti-IgG Fc coated plate, biotin-labeled cMet detected with streptavidin-HRP, OD450; fit value of a flat control curve, unit taken from the axis

biotin-labeled cMet, sequence (P08581 25-932 limits assumed): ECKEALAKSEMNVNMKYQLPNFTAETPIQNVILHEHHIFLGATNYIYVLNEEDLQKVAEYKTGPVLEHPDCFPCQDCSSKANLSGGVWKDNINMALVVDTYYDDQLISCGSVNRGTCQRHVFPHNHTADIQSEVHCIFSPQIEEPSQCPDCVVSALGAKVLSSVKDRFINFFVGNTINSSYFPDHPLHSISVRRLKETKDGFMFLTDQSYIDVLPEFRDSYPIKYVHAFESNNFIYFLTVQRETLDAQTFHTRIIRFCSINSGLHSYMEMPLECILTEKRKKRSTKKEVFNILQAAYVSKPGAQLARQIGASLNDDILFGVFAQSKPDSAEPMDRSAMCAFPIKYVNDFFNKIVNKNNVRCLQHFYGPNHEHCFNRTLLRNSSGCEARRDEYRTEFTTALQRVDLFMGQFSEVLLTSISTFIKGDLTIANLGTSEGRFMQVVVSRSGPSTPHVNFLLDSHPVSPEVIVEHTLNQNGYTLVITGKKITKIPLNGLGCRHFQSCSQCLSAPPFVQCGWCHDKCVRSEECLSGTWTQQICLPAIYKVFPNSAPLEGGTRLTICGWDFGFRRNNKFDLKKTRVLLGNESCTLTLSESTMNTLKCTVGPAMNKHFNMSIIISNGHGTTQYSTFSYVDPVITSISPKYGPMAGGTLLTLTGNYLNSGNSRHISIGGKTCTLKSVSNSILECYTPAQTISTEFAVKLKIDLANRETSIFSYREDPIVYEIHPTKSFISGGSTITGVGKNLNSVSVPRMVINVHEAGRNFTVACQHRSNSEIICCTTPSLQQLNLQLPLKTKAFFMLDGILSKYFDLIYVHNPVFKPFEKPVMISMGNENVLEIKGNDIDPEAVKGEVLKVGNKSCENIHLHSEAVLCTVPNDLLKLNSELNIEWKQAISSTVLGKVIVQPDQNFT

## IL-1β (antibody)
  IC50: 1.1 nM
